{
  "source": "paper doi:10.1101/771139",
  "about": "(bioRxiv, 2020)",
  "proteins": {"B1": {"name": "Bacillus subtilis SepF (natural protein)", "chain": "MSMKNKLKNFFSMEDEEYEYEYIETERESHEEHEQKEKPAYNGNKPAGKQNVVSLQSVQKSSKVVLSEPRVYAEAQEIADHLKNRRAVVVNLQRIQHDQAKRIVDFLSGTVYAIGGDIQRIGSDIFLCTPDNVDVSGTISELISEDEHQRW"}},
  "molecular_target": "the molecule itself",
  "test": "[…]",
  "data": [
    {"protein": "B1", "values": [
      {"measurement": "binding result", "result": "binds"}
    ]}
  ]
}
